Values quoted from earlier work, collected in US20230210827A1, “METHODS AND COMPOSITIONS FOR TREATING ANEMIA USING ACTRIIB LIGAND TRAPS AND MTOR INHIBITORS” (Celgene Corporation, priority 2020, published 2023).
Substitutions are numbered along the chain they refer to. Names may count otherwise.

T1: GDF-11 (Homo sapiens, UniProt O95390)
T1 sequence (O95390 299-407): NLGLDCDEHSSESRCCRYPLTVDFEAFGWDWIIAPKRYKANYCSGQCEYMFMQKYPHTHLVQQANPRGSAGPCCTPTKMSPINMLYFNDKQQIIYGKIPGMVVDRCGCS

B1: L79E: ActRIIB extracellular domain polypeptide with L79E mutation (protein, UniProt Q13705 19-137, looked up, variant L79E)
extracellular domain: SGRGEAETRECIYYNANWELERTNQSGLERCEGEQDKRLHCYASWRNSSGTIELVKKGCWEDDFNCYDRQECVATEENPQVYFCCCEGNFCNERFTHLPEAGGPEVTYEPPPTAPTLLT
modifications: extracellular domain
notes: ActRIIB extracellular domain polypeptide with L79E mutation
B2: ActRIIB(20-119)-Fc: ActRIIB-Fc fusion protein containing amino acids 20-119 of SEQ ID NO:14 (SEQ ID NO:18) (protein)
chain: GRGEAETRECIYYNANWELERTNQSGLERCEGEQDKRLHCYASWRNSSGTIELVKKGCWLDDFNCYDRQECVATEENPQVYFCCCEGNFCNERFTHLPEA
modifications: human ActRIIB soluble (extracellular), processed polypeptide sequence with the C-terminal 15 aa deleted (aa 20-119 of SEQ ID NO14)
B3: L79D: ActRIIB extracellular domain polypeptide with L79D mutation (protein, listed as Homo sapiens)
chain: MTAPWVALALLWGSLWPGSGRGEAETRECIYYNANWELERTNQSGLERCEGEQDKRLHCYASWANSSGTIELVKKGCWDDDFNCYDRQECVATEENPQVYFCCCEGNFCNERFTHLPEAGGPEVTYEPPPTAPTLLTVLAYSLLPIGGLSLIVLLAFWMYRHRKPPYGHVDIHEDPGPPPPSPLVGLKPLQLLEIKARGRFGCVWKAQLMNDFVAVKIFPLQDKQSWQSEREIFSTPGMKHENLLQFIAAEKRGSNLEVELWLITAFHDKGSLTDYLKGNIITWNELCHVAETMSRGLSYLHEDVPWCRGEGHKPSIAHRDFKSKNVLLKSDLTAVLADFGLAVRFEPGKPPGDTHGQVGTRRYMAPEVLEGAINFQRDAFLRIDMYAMGLVLWELVSRCKAADGPVDEYMLPFEEEIGQHPSLEELQEVVVHKKMRPTIKDHWLKHPGLAQLCVTIEECWDHDAEARLSAGCVEERVSLIRRSVNGTTSDCLVSLVTSVTNVDLPPKESSI
modifications: human ActRIIB precursor protein sequence (A64)
notes: ActRIIB extracellular domain polypeptide with L79D mutation
B4: A64: Fc fusion protein having ActRIIB extracellular sequence with alanine at position 64 of SEQ ID NO:2 (protein)
chain: SGRGEAETRECIYYNANWELERTNQSGLERCEGEQDKRLHCYASWANSSGTIELVKKGCWLDDFNCYDRQECVATEENPQVYFCCCEGNFCNERFTHLPEAGGPEVTYEPPPTAPTGGGTHTCPPCPAPELLGGPSVFLFPPKPKDTLMISRTPEVTCVVVDVSHEDPEVKFNWYVDGVEVHNAKTKPREEQYNSTYRVVSVLTVLHQDWLNGKEYKCKVSNKALPVPIEKTISKAKGQPREPQVYTLPPSREEMTKNQVSLTCLVKGFYPSDIAVEWESNGQPENNYKTTPPVLDSDGSFFLYSKLTVDKSRWQQGNVFSCSVMHEALHNHYTQKSLSLSPGK
modifications: fusion protein comprising a soluble extracellular domain of ActRIIB (A64; SEQ ID NO 3) fused to an Fc domain
B5: R64: Fc fusion protein with an arginine at position 64 of the ActRIIB precursor amino acid sequence (protein)
chain: B4 chain with A46R
modifications: fusion protein comprising a soluble extracellular domain of ActRIIB (R64; SEQ ID NO15) fused to an Fc domain
B6: L79A: ActRIIB extracellular domain polypeptide with L79A mutation (protein, UniProt Q13705 19-137, looked up, variant L79A)
extracellular domain: B1 extracellular domain with E61A
modifications: extracellular domain
notes: ActRIIB extracellular domain polypeptide with L79A mutation
B7: L79P: ActRIIB extracellular domain polypeptide with L79P mutation (protein, UniProt Q13705 19-137, looked up, variant L79P)
extracellular domain: B1 extracellular domain with E61P
modifications: extracellular domain
notes: ActRIIB extracellular domain polypeptide with L79P mutation

Test system: activin
Details: ActRIIB variants; background statements

Molecule | affinity for / binding to activin
B1 | greatly reduced activin binding
B2 | reduced binding to GDF-11 and activin
B3 | greatly reduced activin binding
B4 | relatively low affinity
B5 | low nanomolar to high picomolar range

Molecular target: T1, GDF-11
Details: ActRIIB variants; background statements

Molecule | affinity for / binding to GDF-11
B6 | reduce GDF-11 binding to a greater extent than activin binding
B1 | retain GDF-11 binding
B7 | reduce GDF-11 binding to a greater extent than activin binding
B2 | reduced binding to GDF-11 and activin
B3 | retain GDF-11 binding
B4 | relatively low affinity
B5 | low nanomolar to high picomolar range
